Measured values taken from patent publication US20240342207, “MODIFIED NUCLEIC ACID COMPOSITIONS AND ASSOCIATED METHODS FOR TREATMENT OF PHENYLKETONURIA” (BOARD OF REGENTS, THE UNIVERSITY OF TEXAS SYSTEM, published 2024).

Key:
Conditions in all cases: tags: His-tag, E. coli; stem-loop
PAH F39L = target: T1, PAH F39L (Homo sapiens, UniProt P00439 P00439:1-452, F39L); assay: EMSA; one of 13 of 17 binding mutants; affinity not decreased
T1 sequence: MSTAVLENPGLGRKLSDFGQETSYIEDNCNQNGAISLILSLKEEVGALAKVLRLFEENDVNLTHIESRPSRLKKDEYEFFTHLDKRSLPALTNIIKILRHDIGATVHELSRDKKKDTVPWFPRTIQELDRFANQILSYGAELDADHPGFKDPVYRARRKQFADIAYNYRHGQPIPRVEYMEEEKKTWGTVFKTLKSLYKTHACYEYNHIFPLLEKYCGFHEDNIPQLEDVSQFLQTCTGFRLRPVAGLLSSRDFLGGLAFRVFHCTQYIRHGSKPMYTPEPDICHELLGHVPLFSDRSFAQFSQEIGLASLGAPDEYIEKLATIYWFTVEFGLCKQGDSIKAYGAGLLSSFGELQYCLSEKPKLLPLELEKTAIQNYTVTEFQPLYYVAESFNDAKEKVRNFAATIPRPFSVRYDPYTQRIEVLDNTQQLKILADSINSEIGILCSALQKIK

PAH I283N = target: T2, PAH I283N (Homo sapiens, UniProt P00439 P00439:1-452, I283N); assay: as above
T2 sequence: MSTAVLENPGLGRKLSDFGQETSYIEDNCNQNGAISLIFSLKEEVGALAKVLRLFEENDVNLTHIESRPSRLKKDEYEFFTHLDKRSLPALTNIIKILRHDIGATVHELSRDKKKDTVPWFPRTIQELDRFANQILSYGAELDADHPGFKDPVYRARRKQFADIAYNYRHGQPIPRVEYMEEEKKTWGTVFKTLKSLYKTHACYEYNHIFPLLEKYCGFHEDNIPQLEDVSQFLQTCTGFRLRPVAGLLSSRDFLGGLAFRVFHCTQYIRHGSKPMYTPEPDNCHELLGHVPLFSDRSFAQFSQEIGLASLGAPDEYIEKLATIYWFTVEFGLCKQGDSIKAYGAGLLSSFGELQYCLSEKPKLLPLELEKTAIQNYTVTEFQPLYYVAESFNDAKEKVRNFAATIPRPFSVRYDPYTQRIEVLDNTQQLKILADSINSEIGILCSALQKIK

PAH N207S = target: T3, PAH N207S (Homo sapiens, UniProt P00439 P00439:1-452, N207S); assay: EMSA; also decreased affinity in quantified assay
T3 sequence: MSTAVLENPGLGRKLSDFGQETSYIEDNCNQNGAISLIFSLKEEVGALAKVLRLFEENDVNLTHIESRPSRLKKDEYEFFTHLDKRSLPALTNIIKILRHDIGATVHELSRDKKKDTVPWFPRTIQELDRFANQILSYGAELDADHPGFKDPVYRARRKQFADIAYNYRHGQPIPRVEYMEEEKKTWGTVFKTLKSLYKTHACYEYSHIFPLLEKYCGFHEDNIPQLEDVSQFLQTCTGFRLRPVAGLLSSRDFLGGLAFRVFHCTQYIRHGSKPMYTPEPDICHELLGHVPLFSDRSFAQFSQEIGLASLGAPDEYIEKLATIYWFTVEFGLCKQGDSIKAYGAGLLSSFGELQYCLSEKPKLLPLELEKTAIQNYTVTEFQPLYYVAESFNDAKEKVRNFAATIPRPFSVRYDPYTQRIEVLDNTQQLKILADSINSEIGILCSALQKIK
Text: (§1) It was reasoned that supplementing lncRNAs might improve the catalytic activities of the PAH mutants, leading to reduced serum Phe concentrations and improved symptoms in patients with PKU. Scramble (Scr) and HULC mimics representing wild-type HULC nt. 181-201 and HULC A191G mutated sequences were designed for the following studies. 17 PAH mutants that were identified from patients with PKU and are known to affect the enzymatic activity of PAH (21, 22) were selected, and bacterially-expressed wild-type and mutant PAH (FIG. 10 and see FIG. S13A in Li et al. 2021) were collected. […] The denatured wild-type PAH proteins were included as a negative control.
(§2) RNA Electrophoretic Mobility Shift Assay (EMSA). The gel mobility shift assay was performed as previously described (42). Briefly, 500 ng recombinant His-tagged wild-type PAH or mutants were incubated with 0.035 μmol labeled probe in a RNA-protein binding buffer [(50 mM Tris-HCl 7.9, 10% glycerol, 100 mM KCl, 5 mM MgCl₂, 10 mM (3-ME, 0.1% NP40] for 30 min at 30° C. For cold RNA competition, 0.035 μmol radiolabeled RNA probes were first mixed with 7 μmol cold RNA competitors and then subjected to the gel shift assay.

PAH TH63-64PN = target: T4, PAH TH63-64PN (Homo sapiens, UniProt P00439 P00439:1-452, T63P,H64N); assay: EMSA; also decreased affinity in quantified assay
T4 sequence: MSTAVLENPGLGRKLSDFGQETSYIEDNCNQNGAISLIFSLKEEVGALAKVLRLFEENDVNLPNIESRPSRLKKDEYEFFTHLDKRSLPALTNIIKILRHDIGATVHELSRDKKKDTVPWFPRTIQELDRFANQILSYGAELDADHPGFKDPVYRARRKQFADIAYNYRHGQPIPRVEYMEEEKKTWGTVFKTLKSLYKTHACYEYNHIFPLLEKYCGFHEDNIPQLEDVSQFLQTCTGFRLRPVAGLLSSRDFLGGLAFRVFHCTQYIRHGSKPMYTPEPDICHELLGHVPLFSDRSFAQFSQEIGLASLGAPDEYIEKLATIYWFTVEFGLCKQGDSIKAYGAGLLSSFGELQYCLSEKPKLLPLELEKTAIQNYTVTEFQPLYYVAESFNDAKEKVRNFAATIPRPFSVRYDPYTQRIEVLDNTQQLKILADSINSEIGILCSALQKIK
Text: as §1, §2

CAAAAUGCAUAUGUAUCUUUG (ssRNA) [HULC 181-201 mimic]
binding result (PAH F39L): binds
binding result (PAH I283N): binds
binding result (PAH N207S): no binding
binding result (PAH TH63-64PN): no binding
